Earlier results on one substance are cited in paper PMC9598996.

One series addresses Cys67 (UniProt position 567, ILIEICGHKAI). As to conditions: native (folded) enzyme, cysteines reduced.
The target of a further series is Cys95 (UniProt position 595, LTQIGCTLNFP). The following applies: native (folded) enzyme, cysteines reduced.

On to “HIV-1 protease (retropepsin) (Human immunodeficiency virus type 1)”, for which the pKa result with Cys67 and with Cys95 was “about 6” in each case.
